Measured values reported in publication PMC9089897 (PLoS Pathogens, 2022).

Biological target: biotinylated avi-tagged SARS-CoV-2 (Wuhan) receptor binding domain (RBD) (SARS-CoV-2 (Wuhan strain), UniProt P0DTC2, biotin (avi-tagged RBD labeled with biotin, BirA500))
Assay: BLI
Conditions: both partners purified

Binder | binding result
REGN10933 (antibody, V domains shown, also called Casirivimab) VH: QVQLVESGGGLVKPGGSLRLSCAASGFTFSDYYMSWIRQAPGKGLEWVSYITYSGSTIYYADSVKGRFTISRDNAKSSLYLQMNSLRAEDTAVYYCARDRGTTMVPFDYWGQGTLVTVSS VL: DIQMTQSPSSLSASVGDRVTITCQASQDITNYLNWYQQKPGKAPKLLIYAASNLETGVPSRFSGSGSGTDFTFTISGLQPEDIATYYCQQYDNLPLTFGGGTKVEIK | binds
REGN10987 (antibody, V domains shown, also called Imdevimab) VH: QVQLVESGGGVVQPGRSLRLSCAASGFTFSNYAMYWVRQAPGKGLEWVAVISYDGSNKYYADSVKGRFTISRDNSKNTLYLQMNSLRTEDTAVYYCASGSDYGDYLLVYWGQGTLVTVSS VL: QSALTQPASVSGSPGQSITISCTGTSSDVGGYNYVSWYQQHPGKAPKLMIYDVSKRPSGVSNRFSGSKSGNTASLTISGLQSEDEADYYCNSLTSISTWVFGGGTKLTVL | binds
